{"source": "paper PMC5739284", "about": "(Nature microbiology, 2017)", "biological_target": "GST-His6-LC3B (recombinant) (human, UniProt Q9GZQ8 1-120)", "assay": "pull-down", "data": [{"binder": "SGGDDDWTHLSSK", "note": "[synthetic p62 LIR peptide]", "values": [{"measurement": "binding result", "value": "binds"}]}]}
